Assay [1] has as its target ZAP-70 tSH2 domain R190A mutant (human) (UniProt P43403). As to the kind of experiment: ITC; 20 μM R190A tSH2 in the cell, 300 μM ITAM-ζ1-Y2P in the syringe; 20 °C; 20 mM HEPES pH 8.2, 5 mM β-mercaptoethanol, glycerol-free; 5 mM KCl; one-site model. (In general: In ITC the heat of successive injections is recorded.)
Assay [2] has the same target. Kind of assay: ITC; 20 μM R190A tSH2 in the cell, 300 μM ITAM-ζ1-Y2P in the syringe; 20 °C; 20 mM HEPES pH 8.2, 5 mM β-mercaptoethanol, glycerol-free; 20 mM KCl; one-site model.
The target is the same in assay [3]. As to the kind of experiment: ITC; 20 μM R190A tSH2 in the cell, 300 μM ITAM-ζ1-Y2P in the syringe; 20 °C; 20 mM HEPES pH 8.2, 5 mM β-mercaptoethanol, glycerol-free; 150 mM NaCl; one-site model.

As to “ITAM-ζ1-Y2P peptide (doubly phosphorylated first ITAM of the CD3-ζ chain)”, the dissociation constant (Kd) was found to be 9.77 µM in assay [1], 20.9 µM in assay [2] and 6.33 µM in assay [3].

The Kd is a measure of binding affinity in units of concentration. The low end stands for higher affinity, the high end for lower affinity.

The values are drawn from paper PMC13235457.
